Results as given in US20230348573A1 (KEIO UNIVERSITY, published 2023).

B1: Ab864 (antibody, V domains shown)
VH: EVQLVESGGGLVQPGRSLRLSCAASGFTFDDYAMHWVRQVPGKGLEWVSGISWNKGNIDYADSVKGRFTISRDNAKNSLYLQMNSLRPEDTGLYYCAKDCHYDSPGYFPNCLHSWGQGTLVTVSS
VL: EIVMTQSPSSLSASVGDRVTITCRASQGINTYLAWYQQKPGKAPKLLIYTASTLQSGVPSRFSGSGSGTDFTLTISSLQPEDFATYYCQQVHSYPLTFGGGTKVEIK
B2: Ab803 (antibody, V domains shown)
VH: EVQLVESGGGLVQPGRSLRVSCAASGFTFDDYAMHWVRQTPRKGLEWVAGISRNSAAIAYADSVKGRFTISRDNAKNSVFLQMNGLRADDTALYYCVKSPRYGWGSPDYSFDFWGRGTLVTVSS
VL: DIQLTQSPSSLSASVGDRVTITCRASQNIGTYLNWYQQEPGKAPKLLIYAASSLQSGVPSRFSGSGSGTDFTLTISSLQPEDFATYCCQQSFTTPLTFGQGTKVEIK
B3: Ab816 (antibody, V domains shown)
VH: QVQLVQSGAEVKKPGESLMISCKASGYNFRNYWIAWVRQMPGKGLEWMGIIHPGDSDIRYRPSLQGHVTISADKSITTAYLQWGSLKASDTAMYYCTRITTDADSSGLFHYWGQGTLVTVSS
VL: EIVLTQSPSTLSASVGDRVTITCRASQNIYTWLAWYQRKPGKAPKVLIYKASSLESGVPSRFSGSGSGTEFTLTISSLQPDDFATYYCQQYKSAWSFGQGTKVEIK
B4: Ab830 (antibody, V domains shown)
VH: QVQLVQSGAEVKKPGSSVKVSCKTSGGTFTNYTISWVRQAPGQGLEWMGRIIPIFDIVNYAQKFQGRVTITADKSTSTTYMELSSLRSEDTAVYYCARDGVLYDTSGYLYDAFDIWGQGTMVTVSS
VL: DIQMTQSPSSLSASVGDRVTITCRASQGINNYLAWFQQKPGKAPKSLIYAASSLQSGVPPKFSGSGSGTDFTLTISSLQPEDFATYYCLHYNSYPWTFGQGTKVEIK
B5: Ab765 (antibody, V domains shown)
VH: QVQLVESGGGVVQPGRSLRLSCAASGFTFSDYAIHWVRQAPGRGLEPVALISYDGNNKYYADSVKGRFTISRDNSKNVLYLQMNSLRADDTAVYYCARDAEGGWVAALDYWGQGTLVTVSS
VL: QSALTQPRSVSGSPGQSVTISCTGTSSDVGGYNYVSWYQHHPGKAPKVMIYEVSKRPSGVPDRFSGSKSGTTASLTISGLQAEDEADYYCCSYAGTYPYVFGTGTKVTVL
B6: Ab847 (antibody, V domains shown)
VH: EVQLVQSGAEVKKPGASVKVSCKASGYTFTSYDIIWVRQATGQGLEWMGWMDPSRGTTGYAQTFQGRVTMTRDTSISTAYLELNSLTSEDTAVYYCVAHIVVLDRWFDPWGQGTLVTVSS
VL: DIVMTQSPSSLSASVGDRVTITCQASQDIGNFLNWCQQKPGQAPKVLIYGASNLETGVPSRFSGSGSGTDFTFTISSLQPEDIATYYCQHYDNFPPRFTFGQGTKLDIK
B7: Ab712 (antibody, V domains shown)
VH: QVQLVQSGSELKKPGASVKISCKASGYTFINHAINWVRQAPGQGLEWMGWINTNTGNPTYAPGFTGRFVFSLDTSVSTAYLQISSLKAEDTAVYYCARIPIRDYDYDGSGYYYFLDYWGQGTLVTVSS
VL: SYELTQDPAVSVALGQTVRITCQGDSLRSSSASWYQQKPGQAPVLVIYGKTNRPSGIPDRFSGSSSGNTASLTITGAQAEDEADYYCNSRDNSGNHPVVFGGGTKLTVL
B8: Ab709TK (antibody, V domains shown)
VH: QVQLVESGGGVVQPGKSLRLSCAASGFTFSSYAMHWVRLAPGKGLEWVAVISPDGKNKYYVDSVKGRSTISRDNSKNTLYLLMNSLRAEDTAVYYCATTQSLWFGQFYYIYGMDVWGQGTTVTVSS
VL: QSVLTQPHSVSESPGKTITISCTGSSGSIASNYVQWYQQRPGSAPTTVIYEDTERPSGVPDRFSGSIDSSSNSASLTISGLKTEDEADYYCQSYDSNNVVFGGGTKLTVL
B9: Ab376 (antibody, V domains shown)
VH: EVQLVESGGGLVQPGGSLRLSCEASEFTLNSHYMNWVRQAPGKGLEWVSVIYSSGSTYYADSVKGRFTISRHNSKDTLYLQMNSLKPEDTAVYYCARPNYGGNSIWYFDLWGRGTLVTVSS
VL: DIQMTQSPSSVSASVGDRVTITCRASQGIGSWLAWYQQTPGKAPKLLIYAASSLQSGVPSRFSGSGSGTDFTLTISSLQPEDFATYYCQQANSFPLTFGGGTKVEIK
B10: Ab369 (antibody, V domains shown)
VH: QVQLVQSGAEVKKPGASVKVSCKASGYTLTNRAIHWVRQAPGQRLEWMGWINAGKGNTKYSQKFQGRVTITRDTSASTAYMELSSLKSEDTAFYYCATGDGYNYGYDSWGQGTLVTVSS
VL: NFMLTQPPSVSVAPGKTARISCGGTNIGSKSVHWYQQKPGQAPVLVVHDDSDRPSGIPERFSASNSGNTATLTISRVEAGDEADYYCQVWDSTSDLPEVVFGGGTKLTVL
B11: Ab863 (antibody, V domains shown)
VH: EVQLVQSGAEVKKPGASVKVSCQASGYTFITYYMHWVRQAPGQGLEWMGIINPDGGSISYAQKFQGRVTMTRDTSTSTVYMELSSLRSEDTAVYYCARGLSPTFSSSWFDNWGLGTLVTVSS
VL: DVVMTQSPATLSVSPGERATLSCRASQSVSSNLAWYQQKPGQAPRLLIYGASTRDTGIPARFSGSGSGTEFTLTISSLQSEDFAVYFCQQYKNWLLTFGGGTKVEIK
B12: Ab114 (antibody, V domains shown)
VH: EVQLVESGGGLIQPGGSLRLSCAASGFTVSSNYMNWVRQAPGKGLEWVSVIYSGGSTFYADSVKGRFTISRDNSKNTLYLQMNSLRVEDTAVYYCARDLDTQGGMDVWGQGTTVTVSS
VL: EIVLTQSPGSLSLSPGERATLSCRASQGVSSSYLAWYQHKPGQAPRLLIFGASTRATGIPDRFSGSGSGTDFTLTISRLEPEDFAVYYCQLYGSSPGTFGQGTKLEIK
B13: Ab315 (antibody, V domains shown)
VH: EVQLLESGGGLIQPGGSLRLSCAASGLIVSSNYMSWVRQAPGKGLEWVSVIYSGGSTYYADSVKGRFISSRDNSKNTLYLQMNSLRAEDTAVYYCARGELDLPYGMDVWGQGTTVTVSS
VL: QAVVTQPPSVSAAPGQKVTISCSGSSSNIGNNYVSWYQQLPGTAPKLLICDTNKRPSGIPDRFSGSKSGTSATLGITGLQTGDEADYYCGTWDRSLSAGVFGGGTKLTVL
B14: Ab374 (antibody, V domains shown)
VH: EVQLVESGGGLIQPGGSLRLSCVASGFTVSSNYLAWVRQAPGQGLEWVSLIYPGGSTFYADSVKGRFTISRGNSNNTLYLQLNSLRTEDTAVYYCASLYRRGGDSWGQGTLVTVSS
VL: DIQMTQSPSSLSASVGDRVTITCQASQDIRNYLNWYQQKPGKAPKLLIYDASNLQTGVPSRFSGRGSGTDFTFTISSLQAEDIATYYCQQYDNLPITFGQGTRLEIK
B15: Ab175 (antibody, V domains shown)
VH: EVQLVESGGGLVQPGGSLRLSCAASGIIVSSNYMTWVRQAPGKGLEWVSVLYSGGSTFYADSVKGRFTISRDNSKNMLYLQMNSLRAEDTAVYYCARDLQELGVDCWGQGTLVTVSS
VL: DIQLTQSPSFLSASVGDRVTITCRASQGISSYLAWYQQKPGKAPKLLIYAASTLQSGVPSRFSGSGSGTEFTLTISSLQPEDFATYYCQQLDSYPRFGGGTKVEIK
B16: Ab302 (antibody, V domains shown)
VH: EVQLVESGGGLVQPGGSLRLSCAASGVIVSRNYMTWVRQAPGKGLEWVSVIYSGGSTFYADSVKGRFTISRDNSKNTLYLQMNSLRAEDTAVYYCARDRGEDVFDIWGQGTMVTVSS
VL: DIQLTQSPSSLSASVGDRVTITCRASQGISSYLAWYQQKPGKAPKLLIYAASTLQSGVPSRFSGSGSGTDFTLTISSLQPEDFATYYCQQLNSYPGYTFGQGTKLEIK
B17: Ab176 (antibody, V domains shown)
VH: EVQLVESGGGLVQPGGSLRLSCAASGFTFSSYSMNWVRQAPGKGLEWVSYISGSSSTIYYADSVKGRFTISRDNAKNSLYLQMNSLRAEDTAVYYCVSSEWLLPRFFDYWGQGTLVTVSS
VL: QPVLTQEASVSGTVGQKVTLSCTGNRNNIGSYPVGWYQQISHGAPKTVMFGNSPPSGIPDRFFGSRSGTTASLTISGLQPEDEADYYCSTWDYSLSAVVFGGGTKLTVL

Molecular target: spike protein of SARS-CoV-2 (Wuhan strain) on pseudovirus (SARS-CoV-2 (Wuhan strain), UniProt P0DTC2 14-1254)
Assay: cell-based or functional assay

Point of comparison: B6, “IC50 of pseudovirus infection (luciferase)” value 0.0403 µg/mL. Against it:
- B1 — 4.8-fold lower, 0.0084 µg/mL
- B2 — within 1.5-fold, 0.0468 µg/mL
- B3 — 1.8-fold lower, 0.023 µg/mL
- B4 — within 1.5-fold, 0.0349 µg/mL
- B5 — 8.1-fold lower, 0.005 µg/mL
- B7 — 2.6-fold higher, 0.105 µg/mL
- B8 — 1.8-fold higher, 0.0717 µg/mL

Molecular target: T1, RBD derived from SARS-CoV-2 (Wuhan strain) (SARS-CoV-2 (Wuhan strain), UniProt P0DTC2 319-541)
T1 construct: domain: RBD
Assay: BLI (Octet), RBD of the Wuhan strain

Point of comparison: B9, Kd 110 pM. Against it:
- B1 — 35-fold higher, 3900 pM
- B10 — 1.8-fold higher, 197 pM

Molecular target: T2, full-length spike protein of SARS-CoV-2 (Wuhan strain) (SARS-CoV-2 (Wuhan strain), UniProt P0DTC2 14-1273)
T2 construct: whole, on cells; Expressed in 293T cells
Assay: ACE2 competition, spike on 293T cells, antibody 4 µg/mL

Point of comparison: B17, “binding amount (%) of ACE2 protein” value 8.3%. Against it:
- B1 — lower, 0.4%
- B11 — lower, 1.7%
- B12 — higher, 10.9%
- B9 — lower, 5.1%
- B10 — lower, 4.1%
- B2 — lower, 0.9%
- B3 — lower, 0.3%
- B13 — lower, 5.2%
- B4 — lower, 0.9%
- B5 — lower, 0.9%
- B14 — higher, 10.1%
- B6 — lower, 0.3%
- B7 — lower, 4.6%
- B8 — lower, 0.6%
- B15 — lower, 6.9%
- B16 — lower, 4.7%

Molecular target: T1, RBD derived from SARS-CoV-2 (Wuhan …)
Assay: RBD beads, antibody 1 µg/mL, then labelled ACE2, flow cytometry

Point of comparison: B13, “fluorescence of ACE2 protein” value 307. Against it:
- B12 — higher, 2040
- B9 — lower, 134
- B10 — higher, 430
- B14 — higher, 429
- B15 — higher, 439
- B16 — higher, 372
- B17 — higher, 1190

Molecular target: T1, RBD derived from SARS-CoV-2 (Wuhan …)
Assay: RBD beads, antibody 4 µg/mL, then labelled ACE2, flow cytometry

Point of comparison: B16, “fluorescence of ACE2 protein” value 189. Against it:
- B12 — higher, 672
- B9 — lower, 45
- B10 — lower, 107
- B13 — lower, 160
- B14 — higher, 244
- B17 — higher, 366

Molecular target: T1, RBD derived from SARS-CoV-2 (Wuhan …)
Assay: RBD beads, antibody 0.25 µg/mL, then labelled ACE2, flow cytometry

Point of comparison: B10, “fluorescence of ACE2 protein” value 1640. Against it:
- B12 — higher, 3900
- B9 — lower, 445
- B13 — lower, 927
- B14 — lower, 1360
- B15 — higher, 1660
- B16 — lower, 1400
- B17 — higher, 2660
